Assay results as given in US20190142971A1, “FORMULATION AND DELIVERY OF MODIFIED NUCLEOSIDE, NUCLEOTIDE, AND NUCLEIC ACID COMPOSITIONS” (ModernaTX, Inc., priority 2013, published 2019).

Legend:
[1] = system: mice; experiment: Example 41: IV lipoplexed G-CSF mRNA in mice, neutrophil count (Table 66); type: in vivo; conditions: IV 10% lipoplex, 50 ug at days 0, 2, 4; day 5
Description: Neutrophils were measured at days 1, 5 and 8. Controls included non-specific mammalian RNA or the formulation buffer alone (F.Buffer). The mice were bled at days 1, 5 and 8 to determine the effect of mRNA-encoded human G-CSF to increase neutrophil count. The dosing regimen is shown in Table 66 as are the resulting neutrophil counts (thousands/uL; K/uL).

[2] = system: non-human primates (cynomolgus monkey); experiment: Example 21: LNP IV in non-human primates, serum EPO/G-CSF ELISA (Table 37); type: in vivo; conditions: for Average Serum Concentration / Female NHP Serum Concentration / Male NHP Serum Concentration: 0.05 mg/kg IV
Description: Formulations, listed in Table 33, were characterized by particle size, zeta potential, and encapsulation.
LNP formulations, shown in Table 33 (above), were administered to non-human primates (NHP) (cynomolgus monkey) (n=2) as a bolus intravenous injection (IV) over approximately 30 seconds using a hypodermic needle, which may be attached to a syringe/abbocath or butterfly if needed. The NHP were administered a single modified mRNA IV dose of 0.05 mg/kg of EPO or G-CSF or 0.005 mg/kg of EPO in a dose volume of 0.5 mL/kg. The NHPs were bled 5-6 days before dosing with the modified mRNA LNP formulations to determine protein expression in the serum and a baseline complete blood count. After administration with the modified mRNA formulation the NHP were bled at 8, 24, 48 and 72 hours to determined protein expression. At 24 and 72 hours after administration the complete blood count of the NHP was also determined. Protein expression of G-CSF and EPO was determined by ELISA. Urine from the NHPs was collected over the course of the entire experiment and analyzed to evaluate clinical safety. Samples were collected from the NHPs after they were administered with G-CSF or EPO modified mRNA formulations to determine protein expression using ELISA. Clinical chemistry, hematology, urinalysis and cytokines of the non-human primates were also analyzed.

[3] = Example 61: storage stability of G-CSF mRNA, gel electrophoresis (Bio-Rad EXPERION); type: physicochemical
Description: Stability experiments were conducted to obtain a better understanding of storage conditions to retain the integrity of modified RNA. […] After the mRNA had been stored for 0 hours, 2 hours, 6 hours, 24 hours, 48 hours, 5 days and 14 days, the mRNA was analyzed by gel electrophoresis using a Bio-Rad EXPERION™ system. The modified, unmodified and lipoplexed G-CSF mRNA was also stored in RNASTABLE® (Biomatrica, Inc. San Diego, Calif.) at 40° C. or water at −80° C. or 40° C. for 35 days before being analyzed by gel electrophoresis.
mRNA samples stored at 4° C., 25° C. and 37° C. were stored in 1×TE buffer or the formulation buffer (150 mM sodium chloride, 2 mM calcium chloride, 2 mM phosphate, 0.5 mM EDTA at a pH of 6.5). The mRNA stored at 4° C. was stable to at least 60 days in both the TE and formulation buffer. At 25° C. the mRNA in formulation buffer was stable out to 14 days and the TE buffer was stable out to at least 6 days. Storage of mRNA in the formulation buffer at 37° C. was stable to 6 days compared to the TE buffer which was stable only until 4 days.

[4] = system: non-human primates (cynomolgus monkey); experiment: Example 22: LNP IV in non-human primates, serum G-CSF/EPO ELISA (Tables 38, 39); type: in vivo
Description: LNP formulations, shown in Table 33 (above), were administered to non-human primates (NHP) (cynomolgus monkey) (n=2) as intravenous injection (IV). The NHP were administered a single modified mRNA IV dose of 0.5 mg/kg, 0.05 mg/kg or 0.005 mg/kg of G-CSF or EPO in a dose volume of 0.5 mL/kg. The NHPs were bled before dosing with the modified mRNA LNP formulations to determine protein expression in the serum and a baseline complete blood count. After administration with the G-CSF modified mRNA formulation the NHP were bled at 8, 24, 48 and 72 hours to determined protein expression. After administration with the EPO modified mRNA formulation the NHP were bled at 8, 24, 48, 72 hours and 7 days to determined protein expression.
Samples collected from the NHPs after they were administered with G-CSF or EPO modified mRNA formulations were analyzed by ELISA to determine protein expression. Neutrophil and reticulocyte count was also determined pre-dose, 24 hours, 3 days, 7 days, 14 days and 18 days after administration of the modified G-CSF or EPO formulation.

B1: G-CSF: modified mRNA encoding human G-CSF, SEQ ID NO: 4, Cap1, fully modified with 5-methylcytosine and pseudouridine; LNP-formulated in Examples 16-22 (nucleic acid)
chain: GGGAAAUAAGAGAGAAAAGAAGAGUAAGAAGAAAUAUAAGAGCCACCAUGGCCGGUCCCGCGACCCAAAGCCCCAUGAAACUUAUGGCCCUGCAGUUGCUGCUUUGGCACUCGGCCCUCUGGACAGUCCAAGAAGCGACUCCUCUCGGACCUGCCUCAUCGUUGCCGCAGUCAUUCCUUUUGAAGUGUCUGGAGCAGGUGCGAAAGAUUCAGGGCGAUGGAGCCGCACUCCAAGAGAAGCUCUGCGCGACAUACAAACUUUGCCAUCCCGAGGAGCUCGUACUGCUCGGGCACAGCUUGGGGAUUCCCUGGGCUCCUCUCUCGUCCUGUCCGUCGCAGGCUUUGCAGUUGGCAGGGUGCCUUUCCCAGCUCCACUCCGGUUUGUUCUUGUAUCAGGGACUGCUGCAAGCCCUUGAGGGAAUCUCGCCAGAAUUGGGCCCGACGCUGGACACGUUGCAGCUCGACGUGGCGGAUUUCGCAACAACCAUCUGGCAGCAGAUGGAGGAACUGGGGAUGGCACCCGCGCUGCAGCCCACGCAGGGGGCAAUGCCGGCCUUUGCGUCCGCGUUUCAGCGCAGGGCGGGUGGAGUCCUCGUAGCGAGCCACCUUCAAUCAUUUUUGGAAGUCUCGUACCGGGUGCUGAGACAUCUUGCGCAGCCGUGAAGCGCUGCCUUCUGCGGGGCUUGCCUUCUGGCCAUGCCCUUCUUCUCUCCCUUGCACCUGUACCUCUUGGUCUUUGAAUAAAGCCUGAGUAGGAAG
modifications: Cap1, 5-methylcytosine, pseudouridine
- increase in neutrophil count above control [1]: four to five fold increase
- Average Serum Concentration ([2]; 8 hours): 2,506 pg/ml
- Female NHP Serum Concentration ([2]; 8 hours): 3289 pg/mL
- Male NHP Serum Concentration ([2]; 8 hours): 1722 pg/mL
- Average Serum Concentration ([2]; 24 hours): 515 pg/mL
- Female NHP Serum Concentration ([2]; 24 hours): 722 pg/mL
- Male NHP Serum Concentration ([2]; 24 hours): 307 pg/mL
- Average Serum Concentration ([2]; 48 hours): 0 pg/mL
- Female NHP Serum Concentration ([2]; 48 hours): 0 pg/mL
- Male NHP Serum Concentration ([2]; 48 hours): 0 pg/mL
- Average Serum Concentration ([2]; 72 hours): 0 pg/mL
- Female NHP Serum Concentration ([2]; 72 hours): 0 pg/mL
- Male NHP Serum Concentration ([2]; 72 hours): 0 pg/mL
- Average Serum Concentration ([2]; Pre-bleed): 0 pg/mL
- Female NHP Serum Concentration ([2]; Pre-bleed): 0 pg/mL
- Male NHP Serum Concentration ([2]; Pre-bleed): 0 pg/mL
- protein expression detectable out to ([2]; NHP IV, 0.05 mg/kg): 24 h
- freeze/thaw cycles tolerated [3]: 12 cycles
- stable out to ([3]; stored at 25° C., with or without lipoplex): 120 h
- stable out to ([3]; stored at 37° C.): 24 h
- stable out to ([3]; stored at 50° C.): 6 h
- Female NHP Serum G-CSF / EPO Concentration ([4]; 0.005 mg/kg IV, 8 hours): 559 pg/mL
- Male NHP Serum G-CSF / EPO Concentration ([4]; 0.005 mg/kg IV, 8 hours): 700 pg/mL
- Female NHP Serum G-CSF / EPO Concentration ([4]; 0.005 mg/kg IV, 24 hours): 155 pg/mL
- Male NHP Serum G-CSF / EPO Concentration ([4]; 0.005 mg/kg IV, 24 hours): <39 pg/mL
- Female NHP Serum G-CSF / EPO Concentration ([4]; 0.005 mg/kg IV, 48 hours): <39 pg/mL
- Male NHP Serum G-CSF / EPO Concentration ([4]; 0.005 mg/kg IV, 48 hours): <39 pg/mL
- Female NHP Serum G-CSF / EPO Concentration ([4]; 0.005 mg/kg IV, 72 hours): <39 pg/mL
- Male NHP Serum G-CSF / EPO Concentration ([4]; 0.005 mg/kg IV, 72 hours): <39 pg/mL
- Female NHP Serum G-CSF / EPO Concentration ([4]; 0.005 mg/kg IV, Pre-bleed): <39 pg/mL
- Male NHP Serum G-CSF / EPO Concentration ([4]; 0.005 mg/kg IV, Pre-bleed): <39 pg/mL
- Female NHP Serum G-CSF / EPO Concentration ([4]; 0.05 mg/kg IV, 8 hours): 3,289 pg/ml
- Male NHP Serum G-CSF / EPO Concentration ([4]; 0.05 mg/kg IV, 8 hours): 1,722 pg/ml
- Female NHP Serum G-CSF / EPO Concentration ([4]; 0.05 mg/kg IV, 24 hours): 722 pg/mL
- Male NHP Serum G-CSF / EPO Concentration ([4]; 0.05 mg/kg IV, 24 hours): 307 pg/mL
- Female NHP Serum G-CSF / EPO Concentration ([4]; 0.05 mg/kg IV, 48 hours): <39 pg/mL
- Male NHP Serum G-CSF / EPO Concentration ([4]; 0.05 mg/kg IV, 48 hours): <39 pg/mL
- Female NHP Serum G-CSF / EPO Concentration ([4]; 0.05 mg/kg IV, 72 hours): <39 pg/mL
- Male NHP Serum G-CSF / EPO Concentration ([4]; 0.05 mg/kg IV, 72 hours): <39 pg/mL
- Female NHP Serum G-CSF / EPO Concentration ([4]; 0.05 mg/kg IV, Pre-bleed): <39 pg/mL
- Male NHP Serum G-CSF / EPO Concentration ([4]; 0.05 mg/kg IV, Pre-bleed): <39 pg/mL
- Female NHP Serum G-CSF / EPO Concentration ([4]; 0.5 mg/kg IV, 8 hours): 43,525 pg/ml
- Male NHP Serum G-CSF / EPO Concentration ([4]; 0.5 mg/kg IV, 8 hours): 43,594 pg/ml
- Female NHP Serum G-CSF / EPO Concentration ([4]; 0.5 mg/kg IV, 24 hours): 11,374 pg/ml
- Male NHP Serum G-CSF / EPO Concentration ([4]; 0.5 mg/kg IV, 24 hours): 3,628 pg/ml
- Female NHP Serum G-CSF / EPO Concentration ([4]; 0.5 mg/kg IV, 48 hours): 1,100 pg/ml
- Male NHP Serum G-CSF / EPO Concentration ([4]; 0.5 mg/kg IV, 48 hours): 833 pg/mL
- Female NHP Serum G-CSF / EPO Concentration ([4]; 0.5 mg/kg IV, 72 hours): <39 pg/mL
- Male NHP Serum G-CSF / EPO Concentration ([4]; 0.5 mg/kg IV, 72 hours): 306 pg/mL
- Female NHP Serum G-CSF / EPO Concentration ([4]; 0.5 mg/kg IV, Pre-bleed): <39 pg/mL
- Male NHP Serum G-CSF / EPO Concentration ([4]; 0.5 mg/kg IV, Pre-bleed): <39 pg/mL
- protein expression not detected beyond ([4]; NHP IV): ≤ 72 h
